This note sets out measurements from EP4806918A1 (Nanjing Probio Biotech Co., Ltd., dated 2026).

In assay [1] the target is T1, cynomolgus monkey PD-L1 on a stable cell line (Probio, M00573) (cynomolgus monkey, UniProt G7PSE7 19-290).
T1 construct: whole, on cells; also called cells expressing monkey PD-L1
In words: FACS on stable cell line expressing cynomolgus monkey PD-L1.

Assay [2] addresses T2, human PD-L1 on a stable cell line (Probio, RD00868) (human, UniProt Q9NZQ7 19-290).
T2 construct: whole, on cells; also called cells expressing human PD-L1
In words: FACS on stable cell line expressing human PD-L1.

Assay [3] concerns the target T3, mouse PD-L1 on a stable cell line (Probio, M00567) (mouse, UniProt Q9EP73 19-290).
T3 construct: whole, on cells; also called cells expressing mouse PD-L1
The assay is described as follows: FACS on stable cell line expressing mouse PD-L1.

For assay [4], the target named is T4, recombinant human PD-L1-His protein (GenScript, Z03425) (human, UniProt Q9NZQ7 19-238).
T4 construct: Bought protein; also called recombinant human PD-L1 protein; human PD-L1 antigen protein; not shown: His tag
In words: indirect ELISA, plate coated with recombinant human PD-L1-His. A general note: An ELISA detects its analyte on a solid surface through an enzyme-linked reagent.

The target of assay [5] is T4, recombinant human PD-L1-His protein …. In words: SPR, Biacore 8K, antibody Fc-captured, human PD-L1-His as analyte.
The target is the same in assay [6]. In words: competition ELISA on coated human PD-L1-His; row antibody titrated, competitor biotinylated Tecentriq detected.
For assay [7] the target is unchanged. The assay is described as follows: competition ELISA on coated human PD-L1-His; row antibody titrated, competitor biotinylated Avelumab detected.

T1 sequence (G7PSE7 entry or part of it, one chain of several): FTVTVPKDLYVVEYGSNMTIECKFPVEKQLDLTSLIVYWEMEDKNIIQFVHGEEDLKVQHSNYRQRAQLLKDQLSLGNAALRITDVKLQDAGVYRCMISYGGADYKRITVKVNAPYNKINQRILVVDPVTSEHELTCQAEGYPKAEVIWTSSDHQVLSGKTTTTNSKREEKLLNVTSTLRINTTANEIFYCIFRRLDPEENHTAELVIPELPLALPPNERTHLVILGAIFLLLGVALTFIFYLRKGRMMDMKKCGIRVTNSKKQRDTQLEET
T2 sequence (Q9NZQ7 19-290): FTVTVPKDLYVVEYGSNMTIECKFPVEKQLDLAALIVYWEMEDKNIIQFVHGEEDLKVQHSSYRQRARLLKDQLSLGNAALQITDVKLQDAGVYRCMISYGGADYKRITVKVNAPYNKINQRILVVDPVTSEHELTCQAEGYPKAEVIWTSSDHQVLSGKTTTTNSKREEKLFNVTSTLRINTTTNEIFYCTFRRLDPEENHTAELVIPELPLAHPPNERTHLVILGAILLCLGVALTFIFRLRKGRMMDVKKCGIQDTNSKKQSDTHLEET
T3 sequence (Q9EP73 19-290, one chain of several): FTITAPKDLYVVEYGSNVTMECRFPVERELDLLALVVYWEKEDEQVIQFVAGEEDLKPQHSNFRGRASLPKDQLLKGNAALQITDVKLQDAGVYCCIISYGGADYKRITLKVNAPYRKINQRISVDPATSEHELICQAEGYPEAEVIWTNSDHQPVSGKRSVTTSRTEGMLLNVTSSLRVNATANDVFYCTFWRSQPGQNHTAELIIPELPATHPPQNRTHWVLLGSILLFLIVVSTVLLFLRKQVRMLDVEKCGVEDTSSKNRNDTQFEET
T4 sequence (Q9NZQ7 19-238 limits assumed, one chain of several): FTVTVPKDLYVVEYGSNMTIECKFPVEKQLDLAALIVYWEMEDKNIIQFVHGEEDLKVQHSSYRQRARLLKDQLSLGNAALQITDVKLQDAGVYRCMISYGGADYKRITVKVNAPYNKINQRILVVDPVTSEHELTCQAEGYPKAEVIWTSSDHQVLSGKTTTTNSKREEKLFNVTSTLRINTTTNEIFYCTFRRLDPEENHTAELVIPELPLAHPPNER

B1: Avelumab (antibody, V domains shown)
VH: EVQLLESGGGLVQPGGSLRLSCAASGFTFSSYIMMWVRQAPGKGLEWVSSIYPSGGITFYADTVKGRFTISRDNSKNTLYLQMNSLRAEDTAVYYCARIKLGTVTTVDYWGQGTLVTVSS
VL: QSALTQPASVSGSPGQSITISCTGTSSDVGGYNYVSWYQQHPGKAPKLMIYDVSNRPSGVSNRFSGSKSGNTASLTISGLQAEDEADYYCSSYTSSSTRVFGTGTKVTVLG
By EC50 is commonly meant the concentration giving half of the maximal effect. In assay [1], B1 returned an EC50 of 0.894 nM.

B2: AHP30019 fully human antibody (antibody, IgG1, V domains shown, not shown: a dimerising Fc or GST)
VH: QVQLVQSGGGLVQPGGSLRLSCAGSGSSFSLAVMGWYRQAPGRQRELVGIISSAAGTNYADSVKGRFTISRDDAKNTLYLQMNSLTAEDTAVYYCWRGAVPGDPYGRWGQGTLVTVSS
VL: EIVLTQSPLSLPVTLGQPASISCRSSQSLVHSDGNTYLNWFQQRPGQPPRRLIYEVSNRDSGVPDRFSGSGSGTDFTLKISRVEAEDVGVYYCMQGTHWPWTFGQGTKVEIK
The term Kd denotes the equilibrium constant for the complex coming apart. Usually koff stands for a measure of how fast the partners let go of each other. In general, kon refers to the second-order rate constant of association. A word on the IC50: it is the concentration that gives 50% inhibition. As to B2, the EC50 in assay [2] came to 15.9 nM; in assay [3], 31.8 nM; in assay [1] it was 43.5 nM; in assay [4], 4.26 nM. Also, the dissociation constant (Kd) in assay [5] is 50.3 nM. In assay [5], the koff turned out to be 0.00146 s⁻¹. Besides, the kon in assay [5] is 29000 M⁻¹ s⁻¹. Besides, the IC50 in assay [6] was 0.972 nM.

B3: AHP31319 fully human antibody (antibody, IgG1, V domains shown, not shown: a dimerising Fc or GST)
VH: EVQLVQSGGGLVQPGGSLRLSCAGSGSSFSLAVMGWYRQAPGRQRELVGIISSAAGTNYADSVKGRFTISRDDAKNTLYLQMNSLTAEDTAVYYCWRGAVPGDPYGRWGQGTTVTVSS
VL: EIVMTQSPGTLSLSPGEGATLSCRASQSVSNNYLAWYQQKHGQAPRLLIYGASSRATGIPDRFSGSGSGTDFTLTINRLEPEDFALYYCQQYGNSPGTFGQGTKVDIK
Consider B3, for which the EC50 came to 0.977 nM in assay [2], 0.746 nM in assay [3], 1.34 nM in assay [1] and 0.173 nM in assay [4]. For the same molecule, in assay [5], the Kd was determined as 5.08 nM. In addition, the koff in assay [5] was 0.000848 s⁻¹. Further, the kon in assay [5] stood at 167000 M⁻¹ s⁻¹. For the same molecule, the figures for the IC50 in assay [7] and in assay [6] were 8.97 nM and 96.1 nM, respectively.

B4: AHP30005 fully human antibody (antibody, IgG1, V domains shown, not shown: a dimerising Fc or GST)
VH: QVQLVDSGGGLVQAGGSLSVSCAVSGRTALTYAVGWFRQAPGKERDFVAGINWSGSMTNYADSVKGRFTISRDNQKNTVYLQMNSLKPEDTAVYYCAATRTAITMPPQRDGVDYWGKGTTVTVSS
VL: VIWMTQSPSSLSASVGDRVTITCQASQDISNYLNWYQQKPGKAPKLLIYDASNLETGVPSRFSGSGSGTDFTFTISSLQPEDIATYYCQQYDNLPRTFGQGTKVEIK
As for B4, the EC50 came to 0.193 nM in assay [2], 0.184 nM in assay [3], 0.725 nM in assay [1] and 0.275 nM in assay [4]. In addition, in assay [5], the dissociation constant (Kd) was determined as 0.305 nM. The koff in assay [5] was found to be 0.000425 s⁻¹. The kon in assay [5] was 1.39e+06 M⁻¹ s⁻¹. The IC50 turned out to be 1.34 nM in assay [7] and 2.81 nM in assay [6].
